Data on 1 substance can be found in article PMC3079743.

This data set concerns TRF2DBD+L. Briefly: differential centrifugation. The following applies: self-association; agarose gel binding detected at 10-fold lower concentration; EMSA buffer composition not in the material (AFM incubations: without Mg2+ and KCl, 30 min, room temperature); strand insertion assay: 50 mM HEPES, 100 mM …. (Mobility shift assays separate free from complexed probe on a gel.)

The substance “pRST5 2 kb telomeric fragment, histone-free (Tel DNA)” displayed a binding signal (% sedimented at up to 1 uM) of 20.
